Measurements published in article PMC3186789.
Primed or numbered codes have the meaning given here. The star is where a group is joined. Dabcyl′ = CN(C)c1ccc(/N=N/c2ccc(C(=O)*)cc2)cc1; EDANS = O=S(=O)(O)c1cccc2c(NCCN*)cccc12

Biological target: T1, Group B Streptococcus recombinant sortase A SrtA_(ΔN40) (Streptococcus agalactiae strain 515 (serotype Ia)) (UniProt Q8DZY1)
T1 sequence: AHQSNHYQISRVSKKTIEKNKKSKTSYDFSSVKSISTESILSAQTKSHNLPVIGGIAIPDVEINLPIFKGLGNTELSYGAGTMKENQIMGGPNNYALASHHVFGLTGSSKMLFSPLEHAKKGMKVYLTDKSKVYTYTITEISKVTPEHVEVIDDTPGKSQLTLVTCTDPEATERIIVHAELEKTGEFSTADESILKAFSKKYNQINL

B1: AP2-2a peptide (Dabcyl-SFLPKTGM-Edans) (peptide)
peptide: {Dabcyl′}-SFLPKTGM-{EDANS}
SMILES: CSCC[C@H](NC(=O)CNC(=O)[C@@H](NC(=O)[C@H](CCCCN)NC(=O)[C@@H]1CCCN1C(=O)[C@H](CC(C)C)NC(=O)[C@H](Cc1ccccc1)NC(=O)[C@H](CO)NC(=O)c1ccc(/N=N/c2ccc(N(C)C)cc2)cc1)[C@@H](C)O)C(=O)NCCNc1cccc2c(S(=O)(=O)O)cccc12
- apparent Michaelis constant K (m,app) of the transpeptidation reaction (FRET assay, 1-384 µM peptide, 3 µM SrtA (ΔN40), 75 mM triglycine, 37°C, 20 mM HEPES pH 7.5): 48.4 µM
